Amyloid nucleation score data for 68 substances are collected here from the supplement of paper PMC12042874.

A short description of this series: amyloid nucleation score (Sup35N fusion, yeast selection) (log enrichment); library NNK1; higher = more nucleation; inactive = no reads after selection. In outline: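 Three technical output replicates were used for random libraries. Psi-negative yeast expressing peptides of 20 random codons fused to Sup35N were induced with 100 μM copper sulfate for 24 hours and grown 7 days at 30°C on medium lacking adenine and uracil, and input and output plasmid inserts were Illumina-sequenced, excluding sequences with under 100 input reads. The nucleation score is the DiMSum log enrichment of output over input reads, centred on the mode score of non-aggregating sequences.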

± gives the uncertainty stated by the source.

For GWCRG, the amyloid nucleation score result is “inactive”.

In turn, RHPSWLYDVFNIVLVITACW returned an amyloid nucleation score of -0.062 ± 0.97.

As to DILVYRTLSPCVLSCSYFSG, the amyloid nucleation score is -1.25 ± 0.77.

CQNYSHLWGEVTEWLCQRGP had an amyloid nucleation score of 3.39 ± 0.17.

Take LFLLSTSESCFQCATPANDN: the amyloid nucleation score was -0.222 ± 0.59.

In turn, RVSGMAGFFTIKLLKRRSWA came in with an amyloid nucleation score of -0.503 ± 0.62.

For the substance WLSMANHLIISCGSCRFRAF, the amyloid nucleation score was found to be 0.973 ± 0.44.

Take FCVYKAVCIHYPSGFPLTIG: the amyloid nucleation score was -0.238 ± 0.31.

Substance YVQFYGWRTWDLYWYLEWVV came in with an amyloid nucleation score of -1.07 ± 0.8.

With SRGLNFVIVTFYCDLLQG, the amyloid nucleation score is -0.881 ± 1.6.

The substance FWCMALK displayed an amyloid nucleation score of -1.05 ± 2.4.

PMSRIKWILLSGLSKGLSYG yielded an amyloid nucleation score of 2.41 ± 0.17.

On to YYFRHMLKDNHLVIV, for which the amyloid nucleation score entry is “inactive”.

For MVVFDRRGLSYPVS, the amyloid nucleation score amounted to 0.556 ± 0.52.

In turn, MKRASSLMINFMMPCNFYCG came in with an amyloid nucleation score of 0.532 ± 0.62.

Substance YCASFRINVIFV registered an amyloid nucleation score of 3.79 ± 0.086.

Regarding CVLVNVNNDQSWWR, the amyloid nucleation score was found to be 5.04 ± 0.076.

Take GNPGFELWLLSMLIGA: the amyloid nucleation score entry is “inactive”.

For WFELWKSVRGMENYAYVARC, the amyloid nucleation score is -0.043 ± 0.29.

Substance VRGVARYNRKFGDCFYPTHG registered an amyloid nucleation score of 0.065 ± 1.5.

IVYTYRVNIVII registered an amyloid nucleation score of 7.528 ± 0.044.

For the substance CDNSLDSIWFVSVSWN, the amyloid nucleation score turned out to be 1.16 ± 0.69.

YKSLDGF gave an amyloid nucleation score of 0.704 ± 0.93.

Regarding FSPRIALVFRKYQGMASQPP, the amyloid nucleation score is 4.45 ± 0.061.

NWYVVYSWSEQIYREDSMGT displayed an amyloid nucleation score of -0.52 ± 0.71.

CQRAFI displayed an amyloid nucleation score of -0.041 ± 0.77.

SCAYQGKLSIAAMLVSGFGC: the amyloid nucleation score was determined as 1.16 ± 0.97.

EVDRWGICCPYW had an amyloid nucleation score of 1.88 ± 0.26.

In turn, SECIVFYIPTYKHD yielded an amyloid nucleation score of 7.909 ± 0.059.

VGVSAVSTNSSVSKIFGTSW: the amyloid nucleation score worked out at 0.746 ± 0.85.

Turning to KLSRDFRGFYRT, the amyloid nucleation score result is “inactive”.

In turn, SNVICRGR had an amyloid nucleation score of 1.41 ± 0.31.

FMYTDPDSVPQGSDTTSLAL displayed an amyloid nucleation score of -0.129 ± 0.46.

EPYDSLGYPNEDLGTGVFWG yielded an amyloid nucleation score of -1.72 ± 2.7.

In the case of DKTMVGTPGLTHMVVDGVE, the amyloid nucleation score was 0.12 ± 0.84.

On to LCLILVGSY, for which the amyloid nucleation score is 0.062 ± 0.79.

For the substance PWACSTSRSMLPSSSLPALM, the amyloid nucleation score amounted to 0.814 ± 0.66.

On to ADWTSSLNLGEYYMFKFSPE, for which the amyloid nucleation score was 1.02 ± 0.38.

The substance GCLAPLLIDLCCFQMRNSSN came in with an amyloid nucleation score of 0.05 ± 0.49.

NFLESSFYFFALVSASLSFN displayed an amyloid nucleation score of 0.527 ± 0.25.

Regarding WESSAAVDTCTILKMTEKVG, the amyloid nucleation score came to 0.579 ± 1.2.

ESSLLLLDLGELRCYTFCLV returned an amyloid nucleation score of -0.944 ± 0.94.

VSRWHQCADPPRCGHRCIWA: the amyloid nucleation score was 0.299 ± 0.51.

Consider APHTTTLTRKSFDNGCGGFG, for which the amyloid nucleation score came to 0.001 ± 0.38.

On to CVYSFNWLRLLGALSG, for which the amyloid nucleation score worked out at 2.18 ± 0.24.

Take RSSPHSGWQPVDLKY: the amyloid nucleation score was -1.37 ± 2.4.

As to VVEARWNKAMHTNFLNVRES, the amyloid nucleation score was found to be 0.601 ± 0.65.

MDLHTACVYSKVGMTLDQPS showed an amyloid nucleation score of 0.343 ± 0.39.

For KTRSNMNFHCS, the amyloid nucleation score is 0.195 ± 0.6.

For SLMSLLLNFVNLTNNNLSPF, the amyloid nucleation score was -2.99 ± 1.6.

For the substance VDSSRRDVCDGDT, the amyloid nucleation score turned out to be 0.104 ± 0.48.

As for RANQHRGYIFSILVTFCYST, the amyloid nucleation score is -0.505 ± 0.51.

VHIPHDCISAIVFRSSAAIS came in with an amyloid nucleation score of -0.331 ± 0.49.

On to KSGVRYNRGRKYASTQ, for which the amyloid nucleation score was -0.302 ± 0.39.

As for RSWKNKFYPVCFSKSGSRF, the amyloid nucleation score was -0.215 ± 0.41.

For SLFMDRFNVDVI, the amyloid nucleation score was -0.107 ± 0.35.

With LTVIVFIMEATIDYYGGRCG, the amyloid nucleation score was 0.959 ± 0.92.

Turning to VHTVYLLVDTR, the amyloid nucleation score was determined as 0.289 ± 1.2.

In the case of FVLRLS, the amyloid nucleation score entry was “inactive”.

The substance CTRHMHTSRKFQALLSWCVT yielded an amyloid nucleation score of -0.316 ± 0.47.

On to WTRIDSSVYARKGFCAPRLP, for which the amyloid nucleation score came to 0.021 ± 1.1.

On to IWWFSTFVRRRRAAVKVHKA, for which the amyloid nucleation score entry was “inactive”.

In turn, FYPIYGFRWTIFYQPALYNL displayed an amyloid nucleation score of -1.08 ± 1.7.

LLKIGVA: the amyloid nucleation score is -0.465 ± 1.5.

SRYELSIVDCLRHTTSFFVR: the amyloid nucleation score came out at 0.034 ± 0.81.

With LSDWYNLRRWRTVTWAQQLH, the amyloid nucleation score is -0.4 ± 1.3.

TVYGGLWAFSKTICCVSPKR yielded an amyloid nucleation score of 7.228 ± 0.056.

ERYVLAPYQQTRRGNLQFRY displayed an amyloid nucleation score of 0.615 ± 0.63.
